The experiment has as its target T1, human gastric inhibitory peptide receptor (hGIPR) (Homo sapiens, UniProt P48546).
T1 construct: expressed in transfected cells; host or cells: HEK293
T1 sequence (P48546 22-466): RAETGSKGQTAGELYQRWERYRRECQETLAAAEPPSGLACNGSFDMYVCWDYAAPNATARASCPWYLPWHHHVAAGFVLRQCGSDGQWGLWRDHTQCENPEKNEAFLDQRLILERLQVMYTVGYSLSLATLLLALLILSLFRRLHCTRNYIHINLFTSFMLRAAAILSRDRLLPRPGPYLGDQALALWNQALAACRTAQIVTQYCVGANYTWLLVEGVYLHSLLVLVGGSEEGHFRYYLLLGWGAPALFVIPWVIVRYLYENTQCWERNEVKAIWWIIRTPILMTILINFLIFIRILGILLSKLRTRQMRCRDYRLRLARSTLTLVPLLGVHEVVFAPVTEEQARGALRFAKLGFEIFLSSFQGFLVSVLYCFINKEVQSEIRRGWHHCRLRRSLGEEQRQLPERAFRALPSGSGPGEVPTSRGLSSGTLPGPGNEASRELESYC
Briefly: cAMP pharmacological functional assay in presence of 0.1% casein, hGIPR. In kind it is cell-based. The note with it: ratio of hGIPR to hGLP1R cAMP EC50 ratios.

For “Y-Aib-EGTFTSDYSI-αMeL-LDKK((2-[2-(2-Amino-ethoxy)-ethoxy]-acetyl)2-(γGlu)-CO—(CH2)18—CO2H)AQ-Aib-AFIEYLIEGG-NH2 (YXEGTFTSDYSIXLDKKAQXAFIEYLIEGG; Aib, αMeL; K lipidated C20 diacid-γGlu-AEEA2; C-terminal amide; (2)..(2) Xaa at position 2 is Aib; (13)..(13) Xaa at position 13 is alpha-methyl-Leu; MOD_RES (17)..(17) Lys at position 17 is chemically modified by conjugation of the epsilon-amino group of the Lys side chain with (2-[2-(2-amino-ethoxy)-ethoxy]-acetyl)2-(gamma-Glu)-CO-(CH2)18- CO2H; (20)..(20) Xaa at position 20 is Aib; MOD_RES (30)..(30) Gly at position 30 is amidated) [Peptide 62]”, the “[hGIPR/hGLP1R] EC50 Ratio” value turned out to be 5.03.

Consider “Y-Aib-EGTFTSDYSI-αMeL-LDKK((2-[2-(2-Amino-ethoxy)-ethoxy]-acetyl)2-(γGlu)-CO—(CH2)18—CO2H)AQ-Aib-AFIEYLIEGGPSSGAPPPS-NH2 (YXEGTFTSDYSIXLDKKAQXAFIEYLIEGGPSSGAPPPS; Aib, αMeL; lipidated K; C-terminal amide; (2)..(2) Xaa at position 2 is Aib; (13)..(13) Xaa at position 13 is alpha-methyl-Leu; MOD_RES (17)..(17) Lys at position 17 is chemically modified by conjugation of the epsilon-amino group of the Lys side chain with (2-[2-(2-amino-ethoxy)-ethoxy]-acetyl)2-(gamma-Glu)-CO-(CH2)18- CO2H; (20)..(20) Xaa at position 20 is Aib; MOD_RES (39)..(39) Ser at position 39 is amidated) [Peptide 20]”, for which the “[hGIPR/hGLP1R] EC50 Ratio” value worked out at 4.87. Take “Y-Aib-EGTFTSDYSI-αMeL-LDSK((2-[2-(2-Amino-ethoxy)-ethoxy]-acetyl)2-(γGlu)-CO—(CH2)18—CO2H)AQ-Aib-AFIEYLIEGG-NH2 (YXEGTFTSDYSIXLDSKAQXAFIEYLIEGG; Aib, αMeL; K lipidated C20 diacid-γGlu-AEEA2; C-terminal amide; (2)..(2) Xaa at position 2 is Aib; (13)..(13) Xaa at position 13 is alpha-methyl-Leu; MOD_RES (17)..(17) Lys at position 17 is chemically modified by conjugation of the epsilon-amino group of the Lys side chain with (2-[2-(2-amino-ethoxy)-ethoxy]-acetyl)2-(gamma-Glu)-CO-(CH2)18- CO2H; (20)..(20) Xaa at position 20 is Aib; MOD_RES (30)..(30) Gly at position 30 is amidated) [Peptide 64]”: the “[hGIPR/hGLP1R] EC50 Ratio” value is on record as 3.66. Turning to “Y-Aib-EGTFTSDYSI-αMeL-LDSK((2-[2-(2-Amino-ethoxy)-ethoxy]-acetyl)2-(γGlu)-CO—(CH2)18—CO2H)AQ-Aib-AFIEYLIEGGPSSGAPPPS-NH2 (YXEGTFTSDYSIXLDSKAQXAFIEYLIEGGPSSGAPPPS; Aib, αMeL, lipidated Lys, C-terminal amide; (2)..(2) Xaa at position 2 is Aib; (13)..(13) Xaa at position 13 is alpha-methyl-Leu; MOD_RES (17)..(17) Lys at position 17 is chemically modified by conjugation of the epsilon-amino group of the Lys side chain with (2-[2-(2-amino-ethoxy)-ethoxy]-acetyl)2-(gamma-Glu)-CO-(CH2)18- CO2H; (20)..(20) Xaa at position 20 is Aib; MOD_RES (39)..(39) Ser at position 39 is amidated) [Peptide 52]”, the “[hGIPR/hGLP1R] EC50 Ratio” value is 2.72.

These data come from US12295987B2, “Method of using a GIP/GLP1 co-agonist for diabetes” (Eli Lilly and Company, priority 2018, dated 2025).
